According to US20230272056A1 (Merck Sharp & Dohme, published 2023):

What follows are binders tested against T1, human LAP-TGFB1 Fc fusion (human) (assay: BLI off-rate screen).
T1 construct: also called human LAP-TGFβ1-Fc; human LAP-TGFβ-Fc isoform 1
Method: The Fab mutants including a positive control, 20E6 Fab, and a negative control Fab (Molecular Innovations, catalog HU-FAB-4510) were diluted to 200 nM in assay buffer and loaded to FAB2G sensors for 180 seconds followed by a one-hour incubation at room temperature in assay buffer to equilibrate the tips. The Fab loaded sensors were assessed for binding with 100 nM human LAP-TGFβ for 180 seconds followed by a 180 second dissociation phase in assay buffer on a ForteBio HTX (software version 9.0.0.66). Non-specific binding to the negative control Fab was subtracted and the binding sensorgrams were aligned to the start of the association phase on the X and Y axis. The Fab binding was fit with the 1:1 binding model, dissociation phase only, with local fitting using ForteBio Data Analysis 9.0 software.
Twenty-three variants containing a single tyrosine substitution in the light chain CDRs (at one of amino acid positions 24-31, 33, 34, 51-56, and 89-95 according to Kabat numbering scheme) and 21 similar heavy chain CDR variants (at amino acids positions 28-31, 33-35, 50-58 including 52a, 95, 96, 98, and 99 according to Kabat numbering scheme) were generated according to FIG. 1 and listed in Table 6 and their interactions with human LAP-TGFb1 were analyzed by ForteBio interferometry. […] In those sequences the VL is correct, even though these sequences are from the heavy chain. Thus, the VL_X ##Y refers to the position of the tyrosine mutation within the antibody, regardless of whether the sequence is a heavy or light chain.

T1 sequence (chain, as listed by the source limits assumed): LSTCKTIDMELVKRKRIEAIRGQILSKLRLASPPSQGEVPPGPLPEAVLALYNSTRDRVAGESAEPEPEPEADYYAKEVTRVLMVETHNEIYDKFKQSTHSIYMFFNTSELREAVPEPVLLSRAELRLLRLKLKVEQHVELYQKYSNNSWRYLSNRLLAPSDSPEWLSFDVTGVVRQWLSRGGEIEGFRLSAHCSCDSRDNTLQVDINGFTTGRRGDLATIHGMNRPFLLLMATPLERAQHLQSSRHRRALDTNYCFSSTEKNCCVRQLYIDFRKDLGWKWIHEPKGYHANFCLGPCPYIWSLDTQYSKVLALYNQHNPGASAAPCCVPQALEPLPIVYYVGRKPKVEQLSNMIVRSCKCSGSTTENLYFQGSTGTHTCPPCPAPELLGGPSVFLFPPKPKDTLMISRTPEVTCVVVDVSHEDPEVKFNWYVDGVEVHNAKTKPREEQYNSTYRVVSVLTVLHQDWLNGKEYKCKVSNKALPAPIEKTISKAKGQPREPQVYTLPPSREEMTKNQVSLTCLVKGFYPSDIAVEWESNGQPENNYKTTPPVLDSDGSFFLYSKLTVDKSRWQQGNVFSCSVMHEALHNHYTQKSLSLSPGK

| Binder | Binding response [nm] | Fold change [fold] | koff [s⁻¹] | binding result |
| --- | --- | --- | --- | --- |
| VH I51Y (76BIT) (Fab, V domains shown) VH: EVQLVQSGAEVKKPGASVKVSCKASGYTFTSYWMHWVRQAPGQGLEWMGRYDPQSGGIKYAQKFQGRATLTVDTSTSTAYMELSRLRSDDTAVYYCARWDYGGYFDVWGQGTLVTVSS VL: DIQMTQSPSSLSASVGDRVTITCRASQDITNYLNWYQQKPGKAVKLLIYYTSRLHSGVPSRFSGSGSGTDYTLTISSLQPEDFATYFCQQGDTLPWTFGQGTKLEIKR | 0.6 | 1.1 | 0.0379 |  |
| VH P52aY (78BIT) (Fab, V domains shown) VH: EVQLVQSGAEVKKPGASVKVSCKASGYTFTSYWMHWVRQAPGQGLEWMGRIDYQSGGIKYAQKFQGRATLTVDTSTSTAYMELSRLRSDDTAVYYCARWDYGGYFDVWGQGTLVTVSS VL: DIQMTQSPSSLSASVGDRVTITCRASQDITNYLNWYQQKPGKAVKLLIYYTSRLHSGVPSRFSGSGSGTDYTLTISSLQPEDFATYFCQQGDTLPWTFGQGTKLEIKR | 0.566 | 0.9 | 0.0454 |  |
| VH S54Y (80BIT) (Fab, V domains shown) VH: EVQLVQSGAEVKKPGASVKVSCKASGYTFTSYWMHWVRQAPGQGLEWMGRIDPQYGGIKYAQKFQGRATLTVDTSTSTAYMELSRLRSDDTAVYYCARWDYGGYFDVWGQGTLVTVSS VL: DIQMTQSPSSLSASVGDRVTITCRASQDITNYLNWYQQKPGKAVKLLIYYTSRLHSGVPSRFSGSGSGTDYTLTISSLQPEDFATYFCQQGDTLPWTFGQGTKLEIKR | 0.588 | 1 | 0.0406 |  |
| VL A25Y (39BIT) (Fab, V domains shown) VH: EVQLVQSGAEVKKPGASVKVSCKASGYTFTSYWMHWVRQAPGQGLEWMGRIDPQSGGIKYAQKFQGRATLTVDTSTSTAYMELSRLRSDDTAVYYCARWDYGGYFDVWGQGTLVTVSS VL: DIQMTQSPSSLSASVGDRVTITCRYSQDITNYLNWYQQKPGKAVKLLIYYTSRLHSGVPSRFSGSGSGTDYTLTISSLQPEDFATYFCQQGDTLPWTFGQGTKLEIKR | 0.043 |  |  | no binding (tested: 100 nM antigen) |
| VH R50Y (75BIT) (Fab, V domains shown, also called VH RSOY (75BIT)) VH: EVQLVQSGAEVKKPGASVKVSCKASGYTFTSYWMHWVRQAPGQGLEWMGYIDPQSGGIKYAQKFQGRATLTVDTSTSTAYMELSRLRSDDTAVYYCARWDYGGYFDVWGQGTLVTVSS VL: DIQMTQSPSSLSASVGDRVTITCRASQDITNYLNWYQQKPGKAVKLLIYYTSRLHSGVPSRFSGSGSGTDYTLTISSLQPEDFATYFCQQGDTLPWTFGQGTKLEIKR | 0.324 | 0.9 | 0.0445 |  |
| VH M34Y (72BIT) (Fab, V domains shown) VH: EVQLVQSGAEVKKPGASVKVSCKASGYTFTSYWYHWVRQAPGQGLEWMGRIDPQSGGIKYAQKFQGRATLTVDTSTSTAYMELSRLRSDDTAVYYCARWDYGGYFDVWGQGTLVTVSS VL: DIQMTQSPSSLSASVGDRVTITCRASQDITNYLNWYQQKPGKAVKLLIYYTSRLHSGVPSRFSGSGSGTDYTLTISSLQPEDFATYFCQQGDTLPWTFGQGTKLEIKR | 0.623 | 1 | 0.0414 |  |
| VL G91Y (56BIT) (Fab, V domains shown) VH: EVQLVQSGAEVKKPGASVKVSCKASGYTFTSYWMHWVRQAPGQGLEWMGRIDPQSGGIKYAQKFQGRATLTVDTSTSTAYMELSRLRSDDTAVYYCARWDYGGYFDVWGQGTLVTVSS VL: DIQMTQSPSSLSASVGDRVTITCRASQDITNYLNWYQQKPGKAVKLLIYYTSRLHSGVPSRFSGSGSGTDYTLTISSLQPEDFATYFCQQYDTLPWTFGQGTKLEIKR | 0.044 |  |  | no binding (tested: 100 nM antigen) |
| VL D28Y (42BIT) (Fab, V domains shown) VH: EVQLVQSGAEVKKPGASVKVSCKASGYTFTSYWMHWVRQAPGQGLEWMGRIDPQSGGIKYAQKFQGRATLTVDTSTSTAYMELSRLRSDDTAVYYCARWDYGGYFDVWGQGTLVTVSS VL: DIQMTQSPSSLSASVGDRVTITCRASQYITNYLNWYQQKPGKAVKLLIYYTSRLHSGVPSRFSGSGSGTDYTLTISSLQPEDFATYFCQQGDTLPWTFGQGTKLEIKR | 0.207 | 1.3 | 0.0318 |  |
| VH Q53Y (79BIT) (Fab, V domains shown) VH: EVQLVQSGAEVKKPGASVKVSCKASGYTFTSYWMHWVRQAPGQGLEWMGRIDPYSGGIKYAQKFQGRATLTVDTSTSTAYMELSRLRSDDTAVYYCARWDYGGYFDVWGQGTLVTVSS VL: DIQMTQSPSSLSASVGDRVTITCRASQDITNYLNWYQQKPGKAVKLLIYYTSRLHSGVPSRFSGSGSGTDYTLTISSLQPEDFATYFCQQGDTLPWTFGQGTKLEIKR | 0.625 | 1 | 0.0416 |  |
| VH T30Y (69BIT) (Fab, V domains shown) VH: EVQLVQSGAEVKKPGASVKVSCKASGYTFYSYWMHWVRQAPGQGLEWMGRIDPQSGGIKYAQKFQGRATLTVDTSTSTAYMELSRLRSDDTAVYYCARWDYGGYFDVWGQGTLVTVSS VL: DIQMTQSPSSLSASVGDRVTITCRASQDITNYLNWYQQKPGKAVKLLIYYTSRLHSGVPSRFSGSGSGTDYTLTISSLQPEDFATYFCQQGDTLPWTFGQGTKLEIKR | 0.372 | 1.2 | 0.0365 |  |
| VH S31Y (70BIT) (Fab, V domains shown) VH: EVQLVQSGAEVKKPGASVKVSCKASGYTFTYYWMHWVRQAPGQGLEWMGRIDPQSGGIKYAQKFQGRATLTVDTSTSTAYMELSRLRSDDTAVYYCARWDYGGYFDVWGQGTLVTVSS VL: DIQMTQSPSSLSASVGDRVTITCRASQDITNYLNWYQQKPGKAVKLLIYYTSRLHSGVPSRFSGSGSGTDYTLTISSLQPEDFATYFCQQGDTLPWTFGQGTKLEIKR | 0.696 | 1.2 | 0.0361 |  |
| VH W95Y (88BIT) (Fab, V domains shown) VH: EVQLVQSGAEVKKPGASVKVSCKASGYTFTSYWMHWVRQAPGQGLEWMGRIDPQSGGIKYAQKFQGRATLTVDTSTSTAYMELSRLRSDDTAVYYCARYDYGGYFDVWGQGTLVTVSS VL: DIQMTQSPSSLSASVGDRVTITCRASQDITNYLNWYQQKPGKAVKLLIYYTSRLHSGVPSRFSGSGSGTDYTLTISSLQPEDFATYFCQQGDTLPWTFGQGTKLEIKR | 0.638 | 1 | 0.0425 |  |
| VH I57Y (83BIT) (Fab, V domains shown) VH: EVQLVQSGAEVKKPGASVKVSCKASGYTFTSYWMHWVRQAPGQGLEWMGRIDPQSGGYKYAQKFQGRATLTVDTSTSTAYMELSRLRSDDTAVYYCARWDYGGYFDVWGQGTLVTVSS VL: DIQMTQSPSSLSASVGDRVTITCRASQDITNYLNWYQQKPGKAVKLLIYYTSRLHSGVPSRFSGSGSGTDYTLTISSLQPEDFATYFCQQGDTLPWTFGQGTKLEIKR | 0.555 | 1 | 0.043 |  |
| VH T28Y (67BIT) (Fab, V domains shown) VH: EVQLVQSGAEVKKPGASVKVSCKASGYYFTSYWMHWVRQAPGQGLEWMGRIDPQSGGIKYAQKFQGRATLTVDTSTSTAYMELSRLRSDDTAVYYCARWDYGGYFDVWGQGTLVTVSS VL: DIQMTQSPSSLSASVGDRVTITCRASQDITNYLNWYQQKPGKAVKLLIYYTSRLHSGVPSRFSGSGSGTDYTLTISSLQPEDFATYFCQQGDTLPWTFGQGTKLEIKR | 0.326 | 1.2 | 0.0343 |  |
| VH K58Y (84BIT) (Fab, V domains shown) VH: EVQLVQSGAEVKKPGASVKVSCKASGYTFTSYWMHWVRQAPGQGLEWMGRIDPQSGGIYYAQKFQGRATLTVDTSTSTAYMELSRLRSDDTAVYYCARWDYGGYFDVWGQGTLVTVSS VL: DIQMTQSPSSLSASVGDRVTITCRASQDITNYLNWYQQKPGKAVKLLIYYTSRLHSGVPSRFSGSGSGTDYTLTISSLQPEDFATYFCQQGDTLPWTFGQGTKLEIKR | 0.339 | 1.3 | 0.0327 |  |
| VL H55Y (52BIT) (Fab, V domains shown) VH: EVQLVQSGAEVKKPGASVKVSCKASGYTFTSYWMHWVRQAPGQGLEWMGRIDPQSGGIKYAQKFQGRATLTVDTSTSTAYMELSRLRSDDTAVYYCARWDYGGYFDVWGQGTLVTVSS VL: DIQMTQSPSSLSASVGDRVTITCRASQDITNYLNWYQQKPGKAVKLLIYYTSRLYSGVPSRFSGSGSGTDYTLTISSLQPEDFATYFCQQGDTLPWTFGQGTKLEIKR | 0.265 | 1.1 | 0.0385 |  |
| VH W33Y (71BIT) (Fab, V domains shown) VH: EVQLVQSGAEVKKPGASVKVSCKASGYTFTSYYMHWVRQAPGQGLEWMGRIDPQSGGIKYAQKFQGRATLTVDTSTSTAYMELSRLRSDDTAVYYCARWDYGGYFDVWGQGTLVTVSS VL: DIQMTQSPSSLSASVGDRVTITCRASQDITNYLNWYQQKPGKAVKLLIYYTSRLHSGVPSRFSGSGSGTDYTLTISSLQPEDFATYFCQQGDTLPWTFGQGTKLEIKR | 0.77 | 1.8 | 0.023 |  |
| VL D92Y (57BIT) (Fab, V domains shown) VH: EVQLVQSGAEVKKPGASVKVSCKASGYTFTSYWMHWVRQAPGQGLEWMGRIDPQSGGIKYAQKFQGRATLTVDTSTSTAYMELSRLRSDDTAVYYCARWDYGGYFDVWGQGTLVTVSS VL: DIQMTQSPSSLSASVGDRVTITCRASQDITNYLNWYQQKPGKAVKLLIYYTSRLHSGVPSRFSGSGSGTDYTLTISSLQPEDFATYFCQQGYTLPWTFGQGTKLEIKR | 0.046 |  |  | no binding (tested: 100 nM antigen) |
